The assay addresses T1, human CCR5 chemokine receptor (Homo sapiens, UniProt P51681).
T1 construct: host or cells: Chinese Hamster Ovary (CHO) cells; membranes prepared from the cell pellet
Nature of the assay: CC-Chemokine Receptor-5 Binding by Scintillation Proximity Assay (CCR5 SPA), displacement of [125I]MIP1α. The following applies: standard compound, 14-point concentration-response curve in triplicate, starting concentration 1 μM. As for the experimental part:
CC-Chemokine Receptor-5 Binding by Scintillation Proximity Assay (CCR5 SPA) Scintillation Proximity Assay for the Human CC-Chemokine Receptor, CCR-5
This protocol describes a high-throughput screen using SPA binding to identify compounds that inhibit binding of ^125-MIP1α to the human CCR5 chemokine receptor.
Human CCR5 receptors were expressed in Chinese Hamster Ovary (CHO) cells, registration # 12025. Cells were grown in suspension and a 50 to 80 ml CCR5 cell pellet was prepared. […]
The saturation curve binding experiment is performed by adding varying amounts of [^125I]MIP1α (0-8.5 nM to membranes and beads in concentrations chosen from the optimal protein/bead ratio. The data is analyzed using a non-linear curve-fitting program. The Kd and Bmax are derived from the curve. […]

Results on one substance are retold here after US7271172B2, “Pyrrolidine and azetidine compounds as CCR5 antagonists” (SmithKline Beecham Corporation, priority 2002, dated 2007).

T1 sequence (P51681 whole entry): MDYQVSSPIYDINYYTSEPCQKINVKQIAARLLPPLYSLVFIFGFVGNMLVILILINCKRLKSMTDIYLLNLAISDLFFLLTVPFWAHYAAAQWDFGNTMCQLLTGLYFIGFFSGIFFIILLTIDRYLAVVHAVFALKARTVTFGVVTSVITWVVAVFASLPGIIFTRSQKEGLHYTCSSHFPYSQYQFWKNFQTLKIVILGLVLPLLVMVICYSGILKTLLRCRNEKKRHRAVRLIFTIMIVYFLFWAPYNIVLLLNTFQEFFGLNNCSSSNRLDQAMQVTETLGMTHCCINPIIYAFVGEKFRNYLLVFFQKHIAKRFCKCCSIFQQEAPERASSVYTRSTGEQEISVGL

For the substance “MIP1α: natural chemokine ligand of CCR5; standard compound of the CCR5 SPA binding assay”, the “average historical pKi” value came out at 7.6.
